Laboratory results from US20230151068A1.

Target: biotinylated His-Avi-TEAD (194-411) (UniProt P28347)
Assay: SSM screen, enrichment after two rounds of sorting

Binder | enrichment score
GSPDEYIDRAKECCKKGDIQCCLRYFEESGDPNVMLICLFCP (designed binder) [E06D variant of SEQ ID NO: 1] | -0.6
GSPDEYIERAKHCCKKGDIQCCLRYFEESGDPNVMLICLFCP (designed binder) [E10H variant of SEQ ID NO: 1] | -1.97
GSPDEYIEDAKECCKKGDIQCCLRYFEESGDPNVMLICLFCP (designed binder) [R07D variant of SEQ ID NO: 1] | -2.25
GSPDEHIERAKECCKKGDIQCCLRYFEESGDPNVMLICLFCP (designed binder) [Y04H variant of SEQ ID NO: 1] | -1.9
GSPEEYIERAKECCKKGDIQCCLRYFEESGDPNVMLICLFCP (designed binder) [D02E variant of SEQ ID NO: 1] | 1.16
GSHDEYIERAKECCKKGDIQCCLRYFEESGDPNVMLICLFCP (designed binder) [P01H variant of SEQ ID NO: 1] | -0.88
GSPDEYIERAEECCKKGDIQCCLRYFEESGDPNVMLICLFCP (designed binder) [K09E variant of SEQ ID NO: 1] | 3.95
GSPDEYEERAKECCKKGDIQCCLRYFEESGDPNVMLICLFCP (designed binder) [I05E variant of SEQ ID NO: 1] | -1.23
GSPDEEIERAKECCKKGDIQCCLRYFEESGDPNVMLICLFCP (designed binder) [Y04E variant of SEQ ID NO: 1] | -6.52
GSPHEYIERAKECCKKGDIQCCLRYFEESGDPNVMLICLFCP (designed binder) [D02H variant of SEQ ID NO: 1] | -1.05
GSPDEYIHRAKECCKKGDIQCCLRYFEESGDPNVMLICLFCP (designed binder) [E06H variant of SEQ ID NO: 1] | -1.57
GSPDEYIEREKECCKKGDIQCCLRYFEESGDPNVMLICLFCP (designed binder) [A08E variant of SEQ ID NO: 1] | -2.66
GSPDHYIERAKECCKKGDIQCCLRYFEESGDPNVMLICLFCP (designed binder) [E03H variant of SEQ ID NO: 1] | -0.31
GSPDEYIERAHECCKKGDIQCCLRYFEESGDPNVMLICLFCP (designed binder) [K09H variant of SEQ ID NO: 1] | -1.5
GSPDEYIERADECCKKGDIQCCLRYFEESGDPNVMLICLFCP (designed binder) [K09D variant of SEQ ID NO: 1] | -0.58
GSPKEYIERAKECCKKGDIQCCLRYFEESGDPNVMLICLFCP (designed binder) [D02K variant of SEQ ID NO: 1] | -1.07
GSEDEYIERAKECCKKGDIQCCLRYFEESGDPNVMLICLFCP (designed binder) [P01E variant of SEQ ID NO: 1] | 1.12
GSPDEYHERAKECCKKGDIQCCLRYFEESGDPNVMLICLFCP (designed binder) [I05H variant of SEQ ID NO: 1] | -2.99
GSPDEYIERDKECCKKGDIQCCLRYFEESGDPNVMLICLFCP (designed binder) [A08D variant of SEQ ID NO: 1] | -4.17
GSPDEYIERAKDCCKKGDIQCCLRYFEESGDPNVMLICLFCP (designed binder) [E10D variant of SEQ ID NO: 1] | -0.89
GSPDEYIERHKECCKKGDIQCCLRYFEESGDPNVMLICLFCP (designed binder) [A08H variant of SEQ ID NO: 1] | -7.27
GSKDEYIERAKECCKKGDIQCCLRYFEESGDPNVMLICLFCP (designed binder) [P01K variant of SEQ ID NO: 1] | -0.29
GSPDEYIEHAKECCKKGDIQCCLRYFEESGDPNVMLICLFCP (designed binder) [R07H variant of SEQ ID NO: 1] | -0.32
GSPDEYIEEAKECCKKGDIQCCLRYFEESGDPNVMLICLFCP (designed binder) [R07E variant of SEQ ID NO: 1] | -0.16
